system: MS2 coat protein; assay: apparent KD of MS2 coat protein, switch ON state; designed switch direction (-1 OFF switch, 1 ON switch): -1; higher = weaker reporter binding; conditions: FMN input: 0 or 200 uM; Eterna round: R93 (includes R88 designs)
In short: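 Titration buffer: 100 mM Tris-HCl pH 7.5, 80 mM KCl, 4 mM MgCl2, without or with constant ligand. Designed RNA switches transcribed on-chip from Illumina sequencing clusters received SNAP-549-labelled MS2 coat protein in twofold steps from 0.7 or 1.5 nM to 3 µM. Apparent KD is the median per design of fits to normalised cluster binding curves.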

| Sequence | apparent KD of MS2 coat protein |
| --- | --- |
| AGCGAGUAAGGAUAUCGGAAAGGACACGAAAGUGACAAAGACGAGAAGGUACAUGAGGAUCACCCAUGUAAAAA [milkweed 25] | 26.8 nM |
| AAGAGGCUAGGAUAUACAUAUCUGAUGACUCAUCCUAAAACACAUGAGGAUCACCCAUGUAGAAGGAGCGAAUG [Anledi] | 19.2 nM |
| AAAAUACAUGAGGAUCACCCAUGUCAGGAUAUGCUAAAAAAAAAAUUAAAAAAAAAAUGUAGAAGGGACUAAAA [Exclusion Z2] | 53.7 nM |
| AAGAAGUCAGGAUAUGCUGCUCGUCACAAAAGUGAUGAGUAGCAGAAGGGACAUGAGGAUCACCCAUGUAAACA [Opal 34] | 37.6 nM |
| AAAAUACGAGGAUAUACAUGAGGAUCACCCAUGUCAAAAAAUGACUACACAAAAGAAAGUAGAAGGCGUAAAAG [Mat - Exclusion 3 - Mayanna mod - D127] | 24 nM |
| CCUAUGUGAGGAUAUAGCCACAUUACGAAUAAGUAGUGUGGCUAGAAGGCACAUGAGGAUCACCCAUGUAUGGG [Exclusion 4.8 (GC closing FMN)] | 29.9 nM |
| AAGAACUGAGGAUAUACAAAAUAAAAGAAAAGAAAGAAAGAACAUGAGGAUCACCCAUGUAGAAGGUAGAAGAA [Maakherure Amenemhat IV] | 31.3 nM |
| AAAAAGGUAGGAUAUGCUAAAUAACAUGUUGAAUAAAUAAAACAUGAGGAUCACCCAUGUAGAAGGACCAAAAA [Ex 2 Tesla 2] | 54 nM |
| AAAAGGGCAGGAUAUGCGUACUCACGGGAAAACUGAAUGGUACAUGAGGAUCACCCAUGUAGAAGGGCUAAAAA [Dora Explored 19 - Jieux - Exclusion 2] | 54.6 nM |
| AAAAAAAGAGGAUAUACAUGAAAAAUAAAAAUGUAAAAAAAACAUGAGGAUCACCCAUGUAGAAGGCUUAAAAA [Ecx-I 62% 1] | 24.6 nM |
| GAGAAGUGAGGAUAUCGAAGACAGACGAAAAGUCUGUCAAACGAGAAGGCACAUGAGGAUCACCCAUGUGGGAA [Mat - Exaclusion 4 - Eli mod - D76] | 75.8 nM |
| AAACACGGAGGAUAUACACCAUACAAACCUCUAAACAAAAAACAUGAGGAUCACCCAUGUAGAAGGCCGAACAA [Default title] | 24.7 nM |
| AGCUAGUCAGGAUAUACGAACAUGUCGAAAGACGUGAAGGGACAUGAGGAUCACCCAUGUAGAAGGGACUAGCA [Mat - Exclusion 2 - JL mod - D1] | 34.2 nM |
| AAAAUACAUGAGGAUCACCCAUGUGAGGAUAUGCAAAACCCAUAUAAAAAGGGAAAAAGCAGAAGGUACAAAAA [wbt round 1 mod 14] | 18.6 nM |
| AAAAACUGAGGAUAUACAUGAGGAUCACCCAUGUGAAAGAAAGAAAAAAGAAAAGAAAGUAGAAGGCAGAAAAA [Ruby 76] | 34 nM |
| ACAAGGUCAGGAUAUACAUGAGGAUCACCCAUGUGAGAAUUCGAUUAAAACACACAAAGUAGAAGGGACCAGGA [Ruby 83] | 22 nM |
| AAAAAACAUGAGGAUCACCCAUGUAAGGAUAUGUGAAAAAAAAAAUAAAAAAAAAAAAGCAGAAGGUACAAAAA [LROPPY Exclusion 1 - v01_deltaG=3.64] | 66.5 nM |
| AAGAAGCGAGGAUAUACAAAAUAAAAGAAAAGAAAGAAAGAACAUGAGGAUCACCCAUGUAGAAGGCGCAAGAA [Semenkare Nebnuni] | 34.9 nM |
| AAAAACUCAGGAUAUAUUAUGGGACAAUGAAGGAAGAUAAAACAUGAGGAUCACCCAUGUAGAAGGGAGAAAAA [JR_Exclusion2_Sub2] | 57.7 nM |
| AGUUGGCGAGGAUAUACAUGAGGAUCACCCAUGUGAGAGUAAAAAGUGAGAAAGAGAAGUAGAAGGCGCUAACA [Ruby 53] | 37.4 nM |
| AACUAGUCAGGAUAUACGAACAUGUCAAAAGACGUGAAGGGACAUGAGGAUCACCCAUGUAGAAGGGACUAGCA [74%, Web mod - With 1 less G's] | 47.1 nM |
| ACUUAUGAAGGAUAUACUAACAACAUACACUCAACACACACACAUGAGGAUCACCCAUGUAGAAGGUCAAACAU [JR_Exc002_Sub1205] | 19.6 nM |

| Sequence | apparent KD of MS2 coat protein |
| --- | --- |
| GAAAAGGCAGGAUAUACAGGAUAUAGAAGGAGGAUAUAGAGACAUGAGGAUCACCCAUGUAGAAGGGCCAAAAG [Diamond 80] | 48.3 nM |
| AAGAAGGGAGGAUAUACAAAAUAAAAGAAAAGAAAGAAAGAACAUGAGGAUCACCCAUGUAGAAGGCCUAAGAA [Merneferre Ay I] | 23.8 nM |
| GAAAAGUGAGGAUAUUCGGAUAGGAAAACGAAAACCUAUCCGAAGAAGGCACAUGAGGAUCACCCAUGUGGAAG [Mat - Exaclusion 4 - Eli mod - D46] | 26.1 nM |
| AAAAAGGGAGGAUAUACGAAACAGGGAAACCUGAAAAAGGGACAUGAGGAUCACCCAUGUAGAAGGCCCAAGAA [Clint Eastwood 64% 5] | 40.2 nM |
| AAAGAUGCAGGAUAUACAUGAGGAUCACCCAUGUUAGACCAAAAAUGGGAAAAAGAAAGUAGAAGGGCAUAAAA [Ex 3 May 34] | 43.2 nM |
| AGAAAGUGAGGAUAUUCGGAUAGGAAAACGAAAACCUAUCCGAAGAAGGCACAUGAGGAUCACCCAUGUAAAGA [Mat - Exaclusion 4 - Eli mod - D39] | 39.6 nM |
| UAAAGGCGAGGAUAUACAUGAGGAUCACCCAUGUGAAUAAAUAAUAAAAUAAAAUAAAGUAGAAGGCGCAAUAA [LROPPY Exclusion 3 - v03_deltaG=1.9 break up As] | 53.9 nM |
| AAAAAGCGAGGAUAUACGAGUCAAAGAAAAGACAAAAAGGGACAUGAGGAUCACCCAUGUAGAAGGCGCAAAAA [Fiskers exclusion D2 62% 3] | 30.5 nM |
| CGCAAGUCAGGAUAUUCGACAAGUAAAUCAGUAGAUCAAAAGAAGAAGGGACAUGAGGAUCACCCAUGUAAAUA [JR_Exc004_Sub403] | 40 nM |
| GCUGUGCAAGGAUAUACAUGAGGAUCACCCAUGUGAGAGAAAAAAGUGAGAAAGAAAAGUAGAAGGUGCGUAGG [salish99-ex3-99] | 36.5 nM |
| CUCUUGUGAGGAUAUGUAAGAAAAGAAGAGAAAGAAAAGAAACAGAAGGCACAUGAGGAUCACCCAUGUAAGAA [EteRNA is fun!] | 52.8 nM |
| AAAAAGUGAGGAUAUACAUGAGGAUCACCCAUGUGAAGGGAAGAGAGAGAGAGAGAGAGUAGAAGGCACAAAAA [Default title] | 98.8 nM |
| AACAGUACAGGAUAUACAUGAGGAUCACCCAUGUGAGAAUUAAGUAGAUUGCCACAAAGUAGAAGGGUACUGGA [Ruby 98] | 59.3 nM |
| AGUUGGCGAGGAUAUACAUGAGGAUCACCCAUGUGAAAUCGCGAAAAAAUAGGGAAAAGUAGAAGGCGCUGACA [73%, Moding Norbert Elias, 18] | 11 nM |
| AAUAAACAUGAGGAUCACCCAUGUGAGGAUAUACAAAUAAAUAAAAAUAAAAUAAAAAGUAGAAGGCACAAUAA [JR_Exc001_Sub001] | 23.5 nM |
| UUCGCACAUGAGGAUCACCCAUGUCAGGAUAUCGUGGCGGGAAAAACCGGGAAACGCACGAGAAGGGACACACA [EX1 Malc#18 Mod 15 - Jieux - Exclusion 1] | 47.3 nM |
| AACUGUACAGGAUAUACAUGAGGAUCACCCAUGUGAGAAUUAAGUGGGAAACCACAAAGUAGAAGGGUACAGGA [Mat - Exclusion 3 - JL mod - D19] | 29.1 nM |
| CGAAUACAUGAGGAUCACCCAUGUUAGGAUAUGCGAAAACAAAACAAAACAAACAAAAGUAGAAGGAGCAACAA [EXC - 1] | 18.1 nM |
| AAAGGGUCAGGAUAUCGUUUAAUAAUAAAAUAAAUAAAGAACGAGAAGGGACAUGAGGAUCACCCAUGUAUAAA [May 76] | 65.3 nM |
| AGUCGGCGAGGAUAUACAUGAGGAUCACCCAUGUGAGAGCUAAAAGUGAGUCAGAAAAGUAGAAGGCGCUGACA [JL Lego Mod 6] | 96.5 nM |
| GGUUGGCGAGGAUAUACAUGAGGAUCACCCAUGUGAGAGAAAAAAGAGAGAAAGAAAAGUAGAAGGCGCUGACG [salish99-ex3-52] | 47.9 nM |
| AAGAACACAGGAUAUACAUGAGGAUCACCCAUGUAAAAGAAAGAAAAGGGAAAGAAAAGUAGAAGGGUGAAGAA [Nebkheperure Tutankhaten] | 44.7 nM |
